{"source": "paper doi:10.1101/2024.05.02.592161", "target": "Mx_pmut, pore-engineered Myxococcus xanthus encapsulin shell protein (Myxococcus xanthus) (UniProt Q1D6H4)", "experiment": "cryo-EM structure; purified Mx_pmut co-expressed with SNAP-tag-TP cargo (T=3/T=4 sample), 4.1 mg/mL, 150 mM NaCl, 25 mM Tris pH 8.0; icosahedral symmetry imposed"}
{"substance": "SNAP-tag carrying an Mx-targeting peptide (TP) at its C-terminus", "values": [{"measurement": "copies of cargo in a T=3 shell", "value": 180, "unit": "copies"}, {"measurement": "copies of cargo in a T=4 shell", "value": 240, "unit": "copies"}]}
